Results on 1 protein are retold here after ChEMBL document CHEMBL1157388, “Recent developments in fragment-based drug discovery” (J Med Chem, 2008).

Substrate in data set [1]: O=[N+]([O-])c1ccc(OP(=O)(O)O)cc1
Substrate in data set [2]: O=P(O)(O)Oc1ccc(-c2ccccc2)cc1

B1: Receptor-type tyrosine-protein phosphatase beta (Homo sapiens), P23467 (protein)
chain: MLSHGAGLALWITLSLLQTGLAEPERCNFTLAESKASSHSVSIQWRILGSPCNFSLIYSSDTLGAALCPTFRIDNTTYGCNLQDLQAGTIYNFRIISLDEERTVVLQTDPLPPARFGVSKEKTTSTSLHVWWTPSSGKVTSYEVQLFDENNQKIQGVQIQESTSWNEYTFFNLTAGSKYNIAITAVSGGKRSFSVYTNGSTVPSPVKDIGISTKANSLLISWSHGSGNVERYRLMLMDKGILVHGGVVDKHATSYAFHGLTPGYLYNLTVMTEAAGLQNYRWKLVRTAPMEVSNLKVTNDGSLTSLKVKWQRPPGNVDSYNITLSHKGTIKESRVLAPWITETHFKELVPGRLYQVTVSCVSGELSAQKMAVGRTFPDKVANLEANNNGRMRSLVVSWSPPAGDWEQYRILLFNDSVVLLNITVGKEETQYVMDDTGLVPGRQYEVEVIVESGNLKNSERCQGRTVPLAVLQLRVKHANETSLSIMWQTPVAEWEKYIISLADRDLLLIHKSLSKDAKEFTFTDLVPGRKYMATVTSISGDLKNSSSVKGRTVPAQVTDLHVANQGMTSSLFTNWTQAQGDVEFYQVLLIHENVVIKNESISSETSRYSFHSLKSGSLYSVVVTTVSGGISSRQVVVEGRTVPSSVSGVTVNNSGRNDYLSVSWLLAPGDVDNYEVTLSHDGKVVQSLVIAKSVRECSFSSLTPGRLYTVTITTRSGKYENHSFSQERTVPDKVQGVSVSNSARSDYLRVSWVHATGDFDHYEVTIKNKNNFIQTKSIPKSENECVFVQLVPGRLYSVTVTTKSGQYEANEQGNGRTIPEPVKDLTLRNRSTEDLHVTWSGANGDVDQYEIQLLFNDMKVFPPFHLVNTATEYRFTSLTPGRQYKILVLTISGDVQQSAFIEGFTVPSAVKNIHISPNGATDSLTVNWTPGGGDVDSYTVSAFRHSQKVDSQTIPKHVFEHTFHRLEAGEQYQIMIASVSGSLKNQINVVGRTVPASVQGVIADNAYSSYSLIVSWQKAAGVAERYDILLLTENGILLRNTSEPATTKQHKFEDLTPGKKYKIQILTVSGGLFSKEAQTEGRTVPAAVTDLRITENSTRHLSFRWTASEGELSWYNIFLYNPDGNLQERAQVDPLVQSFSFQNLLQGRMYKMVIVTHSGELSNESFIFGRTVPASVSHLRGSNRNTTDSLWFNWSPASGDFDFYELILYNPNGTKKENWKDKDLTEWRFQGLVPGRKYVLWVVTHSGDLSNKVTAESRTAPSPPSLMSFADIANTSLAITWKGPPDWTDYNDFELQWLPRDALTVFNPYNNRKSEGRIVYGLRPGRSYQFNVKTVSGDSWKTYSKPIFGSVRTKPDKIQNLHCRPQNSTAIACSWIPPDSDFDGYSIECRKMDTQEVEFSRKLEKEKSLLNIMMLVPHKRYLVSIKVQSAGMTSEVVEDSTITMIDRPPPPPPHIRVNEKDVLISKSSINFTVNCSWFSDTNGAVKYFTVVVREADGSDELKPEQQHPLPSYLEYRHNASIRVYQTNYFASKCAENPNSNSKSFNIKLGAEMESLGGKCDPTQQKFCDGPLKPHTAYRISIRAFTQLFDEDLKEFTKPLYSDTFFSLPITTESEPLFGAIEGVSAGLFLIGMLVAVVALLICRQKVSHGRERPSARLSIRRDRPLSVHLNLGQKGNRKTSCPIKINQFEGHFMKLQADSNYLLSKEYEELKDVGRNQSCDIALLPENRGKNRYNNILPYDATRVKLSNVDDDPCSDYINASYIPGNNFRREYIVTQGPLPGTKDDFWKMVWEQNVHNIVMVTQCVEKGRVKCDHYWPADQDSLYYGDLILQMLSESVLPEWTIREFKICGEEQLDAHRLIRHFHYTVWPDHGVPETTQSLIQFVRTVRDYINRSPGAGPTVVHCSAGVGRTGTFIALDRILQQLDSKDSVDIYGAVHDLRLHRVHMVQTECQYVYLHQCVRDVLRARKLRSEQENPLFPIYENVNPEYHRDPVYSRH
Regarding B1, the results for the Km in data set [1] and in data set [2] were 1340 µM and 86 µM, respectively.

The term Km denotes the concentration of substrate that gives half-maximal velocity.
